In the supplement of paper PMC9170038:

Test system: MS2 coat protein
Assay: apparent KD of MS2 coat protein; designed switch direction (-1 OFF switch, 1 ON switch): -1; higher = weaker reporter binding
Summary of the method: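 Transcription of designed RNA switches on Illumina chips was done by stalled E. coli RNA polymerase. SNAP-549-labelled MS2 coat protein was then titrated in doubling steps from 0.7 or 1.5 nM to 3 µM, with steps of 0.8–1.5 h at the lowest and 10–20 min at the highest concentration. The per-design median over clusters of curve-fitted normalised fluorescence is reported as apparent KD.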

[1] = input ligand: microRNA oligo, concentration not stated
[2] = Eterna round: R95, input ligand: microRNA oligo, concentration not stated
[3] = Eterna round: R95, input ligand: FMN 200 uM
[4] = Eterna round: R95, input ligand: none

Sequence	apparent KD of MS2 coat protein (input ligand: FMN 200 uM)	apparent KD of MS2 coat protein [1]	apparent KD of MS2 coat protein (input ligand: none)	apparent KD of MS2 coat protein [2]	apparent KD of MS2 coat protein [3]	apparent KD of MS2 coat protein [4]
UACAUGAGGAUCACCCAUGUUUUGUCGUGUAUGGUAUUUAUCUAGGAUAUCAAUUGAUUUAUUCAUGAGAAGGAGAAUAUUAAU [JMF's solution 64] (Eterna round: R96, puzzle: Exclusion NG 3)	34.1 nM	31.4 nM	39.8 nM			
GGAGGAGAGGUUAGGAUAUCCUCCUCGAAAGAGGAGGAGAAGGAACAUGAGGAUCACCCAUGUAAGGAAGGAGG [AK-MS2ROC-r4-Bmoexclusion4-10] (Eterna round: R97, puzzle: Brourd's mod of Exclusion 4)	27.1 nM		37 nM			
GACCUUCCUGUAAGGAUAUCCAUGUAUCAAAGCAUGGAGAAGGUACAUGAGGAUCACCCAUGUCACCCGCGUUA (Eterna round: R97, puzzle: Brourd's mod of Exclusion 4)	17.7 nM		11.7 nM			
AGGUGUAGAGGAUAUCUCUUCUCUCACAUGAGGAUCACCCAUGUCCUGGGUACCUAGGAGAGAGAAGGCUACACCA [Omei Ex5 D11] (Eterna round: R97, puzzle: Exclusion 5)	1370 nM		587 nM			
UGAUCUAGCGGAGGAUAUACAUGAGGAUCACCCAUGUAGUGGUGACGUGCGUACAUGUCACCUGUGUAGAAGGCCGCUAGAUCU [JL ENG2 3.58] (Eterna round: R96, puzzle: Exclusion NG 2)	20.1 nM	9.65 nM	14.8 nM			
AAAAGGCUAGGAUAUACAUGAGGAUCACCCAUGUGAGGGCACGGCCGGCGCGGGCCCGGUAGAAGGAGUCAAAA [Exc;s3-IX] (puzzle: Exclusion 3)				13.4 nM		
GAUUAUGCGAGCUUUAGGGACAUGAGGAUCACCCAUGUUCGUCUUAUUGGUCUGGGUACGCUAACAUACCUAAAUCU [JMF 5] (puzzle: Sensor v3, turn-off variant 1)				46.7 nM	34.3 nM	37.2 nM
CUGCUGGAGCGGCGCUUUGGUCGUACAUGAGGAUCACCCAUGUAGGAUAUGGUAAAAUUCGCCUGCUAGAAGGAUAGAGUGGUC [salish99_ExNG3_r04_617] (Eterna round: R96, puzzle: Exclusion NG 3)	135 nM	62.5 nM	88.1 nM			
UAAAAGCUAGGAUAUACAUGAGGAUCACCCAUGUACCGGCUUGGCCCUGGUCCUAAAUGUAGAAGGAGCACGCC [Zarebebi] (puzzle: Exclusion 3)				14.2 nM		
AAAAUACAUGAGGAUCACCCAUGUGAGGAUAUGAGAGUCAACUCGAGAGAGUUGAUUCUCAGAAGGCACAUAAA [JR_Ex1_Sub066] (Eterna round: R97, puzzle: Exclusion 1)	228 nM		53.7 nM			
GGAUCGAUAGUGAGGAUAUACCACUGGAUACAGUGGUAGAAGGCACAUGAGGAUCACCCAUGUCCUAACGAUCC [Fiskers BMX 4 - 49] (puzzle: Brourd's mod of Exclusion 4)				17.6 nM		
GAAAACGCAGAGGAUAUAUCAGAUCAAAGCUGCAUAGAAGGCUGCACAUGAGGAUCACCCAUGUGGUCUUUAAU [Mat - Exclusion 6 - JL Mod - D1] (Eterna round: R97, puzzle: Exclusion 6)	237 nM		24 nM			
GAAAAGGUAGGAUAUACGAAAAAAAAGGGUAGAAAAAAAACACAUGAGGAUCACCCAUGUAGAAGGACCAAAAC [salish99_ex2_r3_052] (puzzle: Exclusion 2)				35.3 nM	94.7 nM	27.8 nM
CAGUACUGAGGAUAUACAUGAGGAUCACCCAUGUGUUCCAGCUAGGAAACUAGCAAAGGUAGAAGGCAGUACUG [salish99_ex3_r3_065] (Eterna round: R96, puzzle: Exclusion 3)		23.2 nM				
GCAUAUGAUGUAGGAUAUGCGAGACAUGAGGAUCACCCAUGUGAGGGAAGGAGAAGGAGAAGAGAGUAGAAGGAUAGAGUGUGA [Default title] (Eterna round: R96, puzzle: Exclusion NG 2)	83.8 nM	85.3 nM	85.1 nM			
GGUUGGCGAGGAUAUACAUGAGGAUCACCCAUGUGAGAAAUAAAAGUGAGGAAGAAAAGUAGAAGGCGCUGACG [Mat - Exclusion 3 - Mod of Salish D3] (puzzle: Exclusion 3)				50.4 nM	188 nM	83.9 nM
GUUAACGCAGGAUAUUAGUACAUGUACAUGAGGAUCACCCAUGUUUAGUGGGUCUAGGAAUAAGAAGGGCGAUGAA [JR_Ex5_Sub007] (Eterna round: R97, puzzle: Exclusion 5)	280 nM		535 nM			

Sequence	apparent KD of MS2 coat protein (input ligand: FMN 200 uM)	apparent KD of MS2 coat protein [1]	apparent KD of MS2 coat protein (input ligand: none)	apparent KD of MS2 coat protein [2]	apparent KD of MS2 coat protein [3]	apparent KD of MS2 coat protein [4]
CUUAUGGUCCAUACCUAGAACAUGAGGAUCACCCAUGUAAUACAUGACACCUACCUUAAGCACAGCUCGUCUUGUAG [Eternabot (Original) Solution 30] (Eterna round: R97, puzzle: Sensor, turn-off variant 1)	48.9 nM		57 nM			
GAAGAUCGAGUUAGGAUAUGAUUACUAUCCGAAAAUCAGAAGGAACUUGAGGAUCACCCAAGUAAAGAAGAAAU [JR_BMEx4_Sub051] (Eterna round: R97, puzzle: Brourd's mod of Exclusion 4)	22.9 nM		16.5 nM			
UGAAAAGACCUAGGAUAUACCCAGUGGGUAGAGGGUCAGAAUAAUAAAACAUGAGGAUCACCCAUGUAGAAGGAGGGAAAGAAG [Laerxe] (Eterna round: R96, puzzle: Exclusion NG 2)	48.3 nM	42 nM	59.4 nM			
UGAGCAAGAGGAUAUACAUGACGUGCCGUAGCACGAGGUCUACAUGAGGAUCACCCAUGUAGAAGGCUUGUUCU [Mat - Exclusion 2 - JL Mod - D5] (Eterna round: R97, puzzle: Exclusion 2)	170 nM		34.2 nM			
ACCUCACAUGAGGAUCACCCAUGUCAGGAUAUCUUUUAUUACAGCAAUCCUGUCGCUGAGAGAAGGGACAUUAA [EX1 #25] (Eterna round: R97, puzzle: Exclusion 1)	33.8 nM		28.1 nM			
AGAGUGCUGCGAGGAUAUACAUGAGGAUCACCCAUGUUUUCCUGUGAGGCAUAGCCUCACAGGAUGUAGAAGGCGCAGUACUCA [Mat - Exclusion NG 2 - Mod of JL - D29] (Eterna round: R96, puzzle: Exclusion NG 2)	13.5 nM	9.44 nM	13.7 nM			
GCUACUCCAGUCAGGAUAUGGAUCGGCUAAAAGACCCAGAAGGGACUUGAGGAUCACCCAAGUAACGGCUCGGG [Soveare] (Eterna round: R97, puzzle: Brourd's mod of Exclusion 4)	378 nM		54.2 nM			
GCUGGUCGAGGAUAUACAUUCGUGCUUCGGCACGUAAGAUCACAUGAGGAUCACCCAUGUAGAAGGCGACCAGC [E2/5-A1] (Eterna round: R97, puzzle: Exclusion 2)	930 nM		112 nM			
AUAAUGUGAGGAUAUAUGCAUCACGGUGAUACACCGUGAUGAUAGAAGGUACAUGAGGAUCACCCAUGUAGGGC [Mod of Anonveat 16 - Jieux - Exclusion 4] (Eterna round: R97, puzzle: Exclusion 4)	51.2 nM		37.8 nM			
GUGGCACAUGAGGAUCACCCAUGUUAGGAUAUGCUCAAAACGCCCUAGGGUAAGCUGUGUAGAAGGAGCAGGAC [Eternabot (L1) Solution 52] (Eterna round: R97, puzzle: Exclusion 1)	33.7 nM		35.6 nM			
GGUGUGGCAGGAUAUACAUCGAAGGGUGCAAAGGGCUCGGCACAUGAGGAUCACCCAUGUAGAAGGGCCUACCA [Beated] (Eterna round: R96, puzzle: Exclusion 2)	25.3 nM	13.6 nM	15.6 nM			
GUUAUGUAAGGAUAUAUGAGUCACGGAAAUAAACCGUGAAGAUAGAAGGUACAUGAGGAUCACCCAUGUAAGGC [Mod of Anonveat 9 - Jieux - Exclusion 4] (Eterna round: R97, puzzle: Exclusion 4)	16.7 nM		14 nM			
GAUUGACAUGAGGAUCACCCAUGUGAGGAUAUCGGCUGGACCGUGUUGGCCUGCCUCUCGAGAAGGCGCAUAGG [Exclusion 1 V53] (puzzle: Exclusion 1)				35.6 nM	49.9 nM	40.5 nM
CGGAGCGGCUUAGGAUAUGCUGGAAUAUCCCUGCUCCUCAGAACAUGAGGAUCACCCAUGUACUGGCAGAAGGGAGCUGCAGAG [Inxeedsoxe] (Eterna round: R96, puzzle: Exclusion NG 2)	21.8 nM	15.4 nM	18.7 nM			
ACACAGCGAGGAUAUACAUGAGGAUCACCCAUGUGGCGGCCGUUACGGUAGCGCUAGUGUAGAAGGCGCAUUGG [EX3 #36] (Eterna round: R97, puzzle: Exclusion 3)	65.8 nM		94.2 nM			
UUAGUAUUGCAAGGAUAUGUUUAUGUUUAUUUUCCUCUUACAUGAGGAUCACCCAUGUUUAACUUACAGAAGGUGCUAUGAUUU [JR_ExcNG2_Sub032] (Eterna round: R96, puzzle: Exclusion NG 2)	1120 nM	477 nM	1030 nM			
GCACGGAUUGUAGGAUAUCUGUGCGAUUAGCUCAGAGAAGGACACAUGAGGAUCACCCAUGUUACCUCAAUUAGCCUUCCGUGC [Eli exng1 - 030] (Eterna round: R96, puzzle: Exclusion NG 1)	21.7 nM	14.9 nM	20 nM			
